Data on three proteins can be found in paper PMC3655063, “A UDP-X Diphosphatase from Streptococcus pneumoniae Hydrolyzes Precursors of Peptidoglycan Biosynthesis” (PLoS ONE, 2013).

Where a chain is given by its changes, count along the chain named. In names and notes the source's numbering stands.

Data set [1] concerns the molecule itself. The experiment in a line: SEC; size-exclusion chromatography, data not shown. (SEC sorts molecules by how far they enter the pores of the column.)
Substrate in data set [2]: CC(=O)N[C@H]1[C@@H](OP(=O)(O)OP(=O)(O)OC[C@H]2O[C@@H](n3ccc(=O)[nH]c3=O)[C@H](O)[C@@H]2O)O[C@H](CO)[C@@H](O)[C@@H]1O[C@H](C)C(=O)N[C@@H](C)C(=O)O
Put plainly: orthophosphate release with calf intestinal alkaline phosphatase coupling; Michaelis-Menten fit of initial rates. The class given is biochemical, Streptococcus pneumoniae. The settings on record: 50 mM Tris pH 8.4, 5 mM MgCl2, 100 nM enzyme, 37°C for the relative activity assay. From the text: (§1) orthophosphate release with calf intestinal alkaline phosphatase coupling; Michaelis-Menten fit of initial rates on UDP-X diphosphatase (UDP-Xase), SP_1669

Substrate in data set [3]: CC(=O)N[C@H]1[C@@H](OP(=O)(O)OP(=O)(O)OC[C@H]2O[C@@H](n3ccc(=O)[nH]c3=O)[C@H](O)[C@@H]2O)O[C@H](CO)[C@@H](O)[C@@H]1O[C@H](C)C(=O)O
The data set is described as above. The class given is biochemical, Streptococcus pneumoniae. The settings on record: 50 mM Tris pH 8.4, 5 mM MgCl2, 100 nM enzyme, 37°C for the relative activity assay.
Description: as §1

Substrate in data set [4]: O=c1ccn([C@@H]2O[C@H](CO[P@@](=O)(O)O[P@@](=O)(O)O[C@H]3O[C@H](CO)[C@@H](O)[C@H](O)[C@H]3O)[C@@H](O)[C@H]2O)c(=O)[nH]1
The description is as above. The format is biochemical, Streptococcus pneumoniae. The settings on record: 50 mM Tris pH 8.4, 5 mM MgCl2, 100 nM enzyme, 37°C for the relative activity assay.
Description: as §1

Data set [5] deals with the molecule itself. The experiment in a line: SAXS; small-angle X-ray scattering of the mutants in solution, 4.5 and 6 mg/mL; ab initio envelopes fitted with the wild-type crystal dimer (PDB 4HFQ).

B1: UDP-X diphosphatase from Streptococcus pneumoniae TIGR4 (SP_1669 gene product), wild type (enzyme, UniProt A0A0H2URA0 1-203, looked up)
chain: MKTSDFVKYLQRMIAITDTGLTFTKDPFDRERYEDLRSLLSEMLNQASDLDSEEVAEVLKPTSAYATPLMDVRAWIVEDEKICLVRGQGEDSWALPGGFGEVGYSPTENILKEIEEETGFKAKVERLLAVFDTNRFQLQSKQYTKFVFGCKLLDGQFQENQEIADLQFFAIDQLPNLSEKRITKEQIELLWQVYQGHRGQYLD
notes: Nudix hydrolase UDP-X diphosphatase encoded by gene SP_1669 of Streptococcus pneumoniae TIGR4; the gene was amplified from genomic DNA with NdeI and BamHI sites at its start and end; the structure describes residues 1-203 (N-terminal domain 1-59, loop 60-68, C-terminal catalytic domain 69-203); No tag is named; also called UDP-Xase; source: E. coli BL21(DE3), pET-24a, purified (ammonium sulfate, …)
In the case of B1, the “stoichiometry N” value in data set [1] was found to be 2. In data set [2], the Michaelis constant (Km) stood at 1.6 ± 0.3 mM, the Vmax was 28.3 µM/min, the kcat was found to be 4.7 ± 0.2 s⁻¹ and the catalytic efficiency (kcat/Km) stood at 2900 ± 700 M⁻¹ s⁻¹. In data set [3], the Km was found to be 3.6 ± 0.4 mM, the Vmax was determined as 17.7 µM/min, the kcat turned out to be 3 ± 0.1 s⁻¹ and the kcat/Km was 800 ± 100 M⁻¹ s⁻¹. Further, in data set [4], the Km is 2.9 ± 1.1 mM, the Vmax is 7 µM/min, the kcat is 1.2 ± 0.1 s⁻¹ and the kcat/Km came to 400 ± 200 M⁻¹ s⁻¹.

B2: UDP-X diphosphatase E162A mutant (enzyme)
chain: B1 chain with E162A
notes: UDP-X diphosphatase encoded by gene SP_1669 of Streptococcus pneumoniae TIGR4, with E162A made by site-directed mutagenesis of the wild-type construct; Same construct as m1 apart from the mutation; also called UDP-Xase E162A; source: E. coli, expressed as the wild type, purified (ammonium sulfate, Phenyl FF, Source Q, Sephacryl S200)
As to B2, the binding result in data set [5] is recorded as “binds”.

B3: UDP-X diphosphatase E113A mutant (enzyme)
chain: B1 chain with E113A
notes: UDP-X diphosphatase encoded by gene SP_1669 of Streptococcus pneumoniae TIGR4, with E113A made by site-directed mutagenesis of the wild-type construct; Same construct as m1 apart from the mutation; also called UDP-Xase E113A; source: E. coli, expressed as the wild type, purified (ammonium sulfate, Phenyl FF, Source Q, Sephacryl S200)
For B3, the “stoichiometry N” value in data set [5] is 2.

For orientation: stoichiometry N means the number of molecules, sites or subunits per partner or assembly. For orientation: Km means the concentration of substrate that gives half-maximal velocity. One may read the Vmax as the rate approached at saturating substrate. In general, kcat refers to the maximal rate divided by the concentration of active sites. By kcat/Km is commonly meant the second-order rate constant that governs catalysis at low substrate concentration.
